Laboratory results: article PMC9669019, “Molecular basis for integrin adhesion receptor binding to p21-activated kinase 4 (PAK4)” (Communications Biology, 2022)
Positions count from the first letter of the chain named. Numbers in names are those of the source.

B1: D444A: GFP-tagged PAK4 D444A mutant; catalytic domain (Fig 4G) or full-length (Fig 4H) (protein, UniProt O96013 1-591, looked up, variant D444A)
Serine/threonine-protein …: MFGKRKKRVEISAPSNFEHRVHTGFDQHEQKFTGLPRQWQSLIEESARRPKPLVDPACITSIQPGAPKTIVRGSKGAKDGALTLLLDEFENMSVTRSNSLRRDSPPPPARARQENGMPEEPATTARGGPGKAGSRGRFAGHSEAGGGSGDRRRAGPEKRPKSSREGSGGPQESSRDKRPLSGPDVGTPQPAGLASGAKLAAGRPFNTYPRADTDHPSRGAQGEPHDVAPNGPSAGGLAIPQSSSSSSRPPTRARGAPSPGVLGPHASEPQLAPPACTPAAPAVPGPPGPRSPQREPQRVSHEQFRAALQLVVDPGDPRSYLDNFIKIGEGSTGIVCIATVRSSGKLVAVKKMDLRKQQRRELLFNEVVIMRDYQHENVVEMYNSYLVGDELWVVMEFLEGGALTDIVTHTRMNEEQIAAVCLAVLQALSVLHAQGVIHRDIKSASILLTHDGRVKLSDFGFCAQVSKEVPRRKSLVGTPYWMAPELISRLPYGPEVDIWSLGIMVIEMVDGEPPYFNEPPLKAMKMIRDNLPPRLKNLHKVSPSLKGFLDRLLVRDPAQRATAAELLKHPFLAKAGPPASIVPLMRQNRTR
modifications: GFP tag; catalytic domain or full-length
B2: E512R: GFP-tagged PAK4 E512R mutant; catalytic domain (Fig 4G) or full-length (Fig 4H) (protein, UniProt O96013 1-591, looked up, variant E512R)
Serine/threonine-protein …: B1 Serine/threonine-protein … with A444D, E512R
modifications: GFP tag
B3: M482K: GFP-tagged PAK4 M482K mutant; catalytic domain (Fig 4G) or full-length (Fig 4H) (protein, UniProt O96013 1-591, looked up, variant M482K)
Serine/threonine-protein …: B1 Serine/threonine-protein … with A444D, M482K
modifications: GFP tag
B4: Q358A: GFP-tagged PAK4 Q358A mutant; catalytic domain (Fig 4G) or full-length (Fig 4H) (protein, UniProt O96013 1-591, looked up, variant Q358A)
Serine/threonine-protein …: B1 Serine/threonine-protein … with Q358A, A444D
modifications: GFP tag
B5: E512A: GFP-tagged PAK4 E512A mutant; catalytic domain (Fig 4G) or full-length (Fig 4H) (protein, UniProt O96013 1-591, looked up, variant E512A)
Serine/threonine-protein …: B1 Serine/threonine-protein … with A444D, E512A
modifications: GFP tag; catalytic domain or full-length
B6: D444R: GFP-tagged PAK4 D444R mutant; catalytic domain (Fig 4G) or full-length (Fig 4H) (protein, UniProt O96013 1-591, looked up, variant D444R)
Serine/threonine-protein …: B1 Serine/threonine-protein … with A444R
modifications: GFP tag; catalytic domain or full-length

Test system: integrin β5 tail
Assay: Pull-down of wild-type and mutated GFP-PAK4 catalytic domain by wild-type integrin β5 tail
Format: binding
Settings: Figure 4G source data; PAK4 catalytic domain; replicate 1
Procedure: (§1) Pull down assays were performed as previously described[45],[60]. Briefly, constructs encoding an N-terminal His-tag followed by a helical region, a 4-glycine spacer, and an integrin cytoplasmic tail sequence were produced in BL21 (DE3) bacteria. Following bacterial cell lysis, recombinant protein was bound to Ni-NTA beads, eluted with imidazole, dialyzed and further purified by reverse-phase high-performance liquid chromatography (HPLC). Purified protein was lyophilized for storage and was used to coat fresh Ni-NTA beads to generate an affinity matrix for pull-down assays.
(§2) For pulldowns from cell lysates, human PAK4 constructs were generated in pEGFP (Takara Bio Inc.) by PCR amplification from a pLX304 PAK4 isoform 1 (Uniprot O96013-1) construct kindly provided by Michael Calderwood (Dana-Farber Cancer Institute). Mutations and deletions were introduced by QuikChange mutagenesis or PCR amplification. Chinese hamster ovary (CHO) cells were seeded on 10 cm tissue culture dishes and transiently transfected with GFP-tagged constructs using polyethylenimine (Polysciences). After 24 h, cells were harvested and lysed in buffer X (1 mM NaVO4, 50 mM NaF, 40 mM sodium pyrophosphate, 50 mM NaCl, 150 mM sucrose, 10 mM Pipes, pH 6.8) containing 0.5% Triton X-100, 0.2% deoxycholic acid, and complete EDTA-free protease inhibitor mixture (Roche, Indianapolis, IN, USA) for 15 min at 4 °C. After clarification by centrifugation, lysate was diluted in buffer X-T (buffer X with 0.05% Triton X-100) and incubated with His-tagged integrin tails coupled to Ni-NTA beads for 4 h with rocking at 4 °C. For experiments using purified PAK4cat, protein was incubated with His-tagged integrin tails coupled to Ni-NTA beads in buffer X-T for 2 h with rocking at 4 °C. Beads were then washed three times with buffer X-T, and bound proteins were fractionated by reducing SDS-PAGE and analyzed by immunoblotting with anti-GFP antibodies (600-101-215, Rockland). Immunoblots were imaged on an Odyssey IR imaging system (Li-Cor; Lincoln, NE, USA) and analyzed using Image Studio Lite (Li-Cor; Lincoln, NE, USA). For the quantification of binding from immunoblots, the fluorescence intensity of the band corresponding to bound material was quantified as a fraction of the fluorescence of the input material band for each condition. Loading of integrin tails was assessed by Coomassie Blue staining. Data were analyzed using GraphPad Prism.

Row | Molecule | Binding to wild-type integrin β5 tail, normalized to cat-WT
1 | B1 | 0.04069
2 | B2 | 0.1343
3 | B3 | 0.517
4 | B4 | 0.8373
5 | B5 | 0.4077
6 | B6 | 0.1667

Same assay, conditions: Figure 4G; replicate 2

Row | Molecule | Binding to wild-type integrin β5 tail, normalized to cat-WT
7 | B1 | 0.001166
8 | B2 | 0.09959
9 | B3 | 0.2755
10 | B4 | 0.4614
11 | B5 | 0.4295
12 | B6 | 0.1098

Same assay, conditions: Figure 4G; replicate 3

Row | Molecule | Binding to wild-type integrin β5 tail, normalized to cat-WT
13 | B1 | 0.2433
14 | B2 | 0.2543
15 | B3 | 0.5038
16 | B4 | 0.71
17 | B5 | 0.5407
18 | B6 | 2.475e-5

Same assay, conditions: Figure 4G; replicate 4

Row | Molecule | Binding to wild-type integrin β5 tail, normalized to cat-WT
19 | B1 | 0.09577
20 | B2 | 0.09217
21 | B3 | 0.2427
22 | B4 | 1.075
23 | B5 | 0.2568
24 | B6 | 0.334

Same assay, conditions: Figure 4G; replicate 5

Row | Molecule | Binding to wild-type integrin β5 tail, normalized to cat-WT
25 | B1 | 3.582e-6
26 | B2 | 0.08446
27 | B3 | 0.2915
28 | B4 | 0.4677
29 | B5 | 0.7435
30 | B6 | 0.004908

Same assay, conditions: Figure 4G; replicate 6

Row | Molecule | Binding to wild-type integrin β5 tail, normalized to cat-WT
31 | B1 | 0.09749
32 | B2 | 0.3379
33 | B3 | 0.007133
34 | B4 | 1.0032
35 | B5 | 0.2789
36 | B6 | 0.1746

Same assay, conditions: Figure 4G; replicate 7

Row | Molecule | Binding to wild-type integrin β5 tail, normalized to cat-WT
37 | B1 | 0.0832
38 | B4 | 1.283
39 | B5 | 0.1085
40 | B6 | 0.115

Same assay, conditions: Figure 4G; replicate 8

Row | Molecule | Binding to wild-type integrin β5 tail, normalized to cat-WT
41 | B4 | 1.183

Same assay, conditions: Figure 4G; replicate 9

Row | Molecule | Binding to wild-type integrin β5 tail, normalized to cat-WT
42 | B4 | 0.828

Same assay, conditions: catalytic domain (Fig. 4g) and full-length PAK4 (Fig. 4h)

Row | Molecule | Effect of PAK4 mutation on pull-down by integrin β5
43 | B1 | strong inhibition
44 | B2 | strong inhibition
45 | B3 | moderate effect
46 | B4 | no effect on binding

Test system: integrin β5 tail
Assay: Pull-down of wild-type and mutated full-length GFP-PAK4 by wild-type integrin β5 tail
Format: binding
Settings: Figure 4H source data; full-length PAK4; experiment row r4
Procedure: as §1, §2

Row | Molecule | Binding to wild-type integrin β5 tail, normalized to FL-WT
47 | B1 | 0.235
48 | B3 | 0.259
49 | B4 | 0.221
50 | B6 | 0.011

Same assay, conditions: Figure 4H; experiment row r5

Row | Molecule | Binding to wild-type integrin β5 tail, normalized to FL-WT
51 | B1 | 0.008
52 | B2 | 0.472
53 | B3 | 1.377
54 | B4 | 0.9415
55 | B5 | 0.029

Same assay, conditions: Figure 4H; experiment row r6

Row | Molecule | Binding to wild-type integrin β5 tail, normalized to FL-WT
56 | B2 | 0.89
57 | B3 | 0.432
58 | B5 | 0.62

Same assay, conditions: Figure 4H; experiment row r7

Row | Molecule | Binding to wild-type integrin β5 tail, normalized to FL-WT
59 | B2 | 0.486
60 | B3 | 0.512
61 | B5 | 0.561
62 | B6 | 0.517

Same assay, conditions: Figure 4H; experiment row r8

Row | Molecule | Binding to wild-type integrin β5 tail, normalized to FL-WT
63 | B2 | 0.106
64 | B3 | 0.381
65 | B4 | 0.58
66 | B5 | 0.262

Same assay, conditions: Figure 4H; experiment row r9

Row | Molecule | Binding to wild-type integrin β5 tail, normalized to FL-WT
67 | B2 | 0.64
68 | B5 | 0.4

Same assay, conditions: Figure 4H; experiment row r10

Row | Molecule | Binding to wild-type integrin β5 tail, normalized to FL-WT
69 | B3 | 1.044
70 | B4 | 3.01

Same assay, conditions: Figure 4H; experiment row r11

Row | Molecule | Binding to wild-type integrin β5 tail, normalized to FL-WT
71 | B3 | 0.278

Same assay, conditions: Figure 4H; experiment row r13

Row | Molecule | Binding to wild-type integrin β5 tail, normalized to FL-WT
72 | B6 | 0.253

Same assay, conditions: Figure 4H; experiment row r14

Row | Molecule | Binding to wild-type integrin β5 tail, normalized to FL-WT
73 | B1 | 0.233
74 | B6 | 0.329

Same assay, conditions: Figure 4H; experiment row r15

Row | Molecule | Binding to wild-type integrin β5 tail, normalized to FL-WT
75 | B1 | 0.015
76 | B6 | 0.208

Same assay, conditions: Figure 4H; experiment row r17

Row | Molecule | Binding to wild-type integrin β5 tail, normalized to FL-WT
77 | B3 | 0.149
78 | B4 | 1.265
79 | B5 | 0.03

Same assay, conditions: Figure 4H; experiment row r18

Row | Molecule | Binding to wild-type integrin β5 tail, normalized to FL-WT
80 | B4 | 0.66

Same assay, conditions: Figure 4H; experiment row r19

Row | Molecule | Binding to wild-type integrin β5 tail, normalized to FL-WT
81 | B3 | 0.8
82 | B4 | 1.25
83 | B5 | 0.1
